Each binder was assayed against acetylcholine receptor (assay: SPR, peptide at 10 uM).

| Binding affinity [RU] | Binder |
| --- | --- |
| 25 | KMTERK [6mer-2-1195] |
| 27 | RMSHRR [6mer-2-1198] |
| 43 | REKIRR [6mer-2-1193] |
| 35 | KKADRK [6mer-2-1191] |
| 39 | RESKKR [6mer-2-1196] |
| 40 | KHKNKR [6mer-2-1192] |
| 23 | KNCIKK [6mer-2-1197] |
| 35 | KYCDRK [6mer-2-1194] |

Each binder was assayed against acetylcholine receptor (assay: SPR, peptide at 10 uM on acetylcholine receptor).

| Binding affinity (RU) | Binder |
| --- | --- |
| 18 | RYMGR [5mer-951] |
| 23 | KTEVK [5mer-954] |
| 20 | RYSFK [5mer-649] |
| 26 | KMKMK [5mer-949] |
| 23 | RKMAR [5mer-953] |
| 16 | KTTWK [5mer-653] |
| 22 | KDADR [5mer-950] |
| 11 | RKWKR [5mer-958] |
| 14 | KNADK [5mer-955] |
| 11 | RFTVR [5mer-651] |
| 15 | RKCIR [5mer-655] |
| 29 | KPNMK [5mer-959] |
| 31 | KKWGR [5mer-658] |
| 19 | KPTWK [5mer-956] |
| 23 | RCAAR [5mer-652] |
| 12 | KTMHK [5mer-952] |
| 11 | KFDVK [5mer-660] |
| 22 | RPEDK [5mer-650] |
| 30 | RDCER [5mer-957] |
| 27 | KEWNR [5mer-654] |
| 13 | KATGR [5mer-656] |
| 22 | KDNDR [5mer-657] |
| 22 | KIHEK [5mer-659] |

Reference: patent US20250011363A1, “OPTIMIZED SHORTENED PEPTIDE THAT BINDS TO ACETYLCHOLINE RECEPTOR, AND USE THEREOF” (SKINMED CO., LTD., priority 2021, published 2025)
